In assay [1] the target is cyclooxygenase-2 (COX-2), endogenous in human neutrophils (human (endogenous in neutrophils)) (UniProt P35354).
For assay [2] the target is unchanged. The source holds these as a separate data set.

UniProt P35354, sequence (P35354 18-604): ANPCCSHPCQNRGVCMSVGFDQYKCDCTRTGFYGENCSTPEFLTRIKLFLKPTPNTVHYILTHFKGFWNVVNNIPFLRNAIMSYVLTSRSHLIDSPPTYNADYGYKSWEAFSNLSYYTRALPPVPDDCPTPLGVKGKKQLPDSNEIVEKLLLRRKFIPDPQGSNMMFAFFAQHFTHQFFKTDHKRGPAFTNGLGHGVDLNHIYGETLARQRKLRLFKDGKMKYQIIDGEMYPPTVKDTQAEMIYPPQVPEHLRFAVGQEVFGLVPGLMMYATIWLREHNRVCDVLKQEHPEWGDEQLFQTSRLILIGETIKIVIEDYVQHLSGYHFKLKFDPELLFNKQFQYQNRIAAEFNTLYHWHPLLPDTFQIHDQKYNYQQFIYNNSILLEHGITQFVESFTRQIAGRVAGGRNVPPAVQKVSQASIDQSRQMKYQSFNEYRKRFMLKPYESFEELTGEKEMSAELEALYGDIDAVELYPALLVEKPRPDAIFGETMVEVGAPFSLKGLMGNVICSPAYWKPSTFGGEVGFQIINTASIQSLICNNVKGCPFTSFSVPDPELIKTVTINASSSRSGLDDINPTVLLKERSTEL

For the substance “human recombinant nucleobindin (hrNuc), full length (from UniProt Q02818 27-461) (natural protein)”, the PGE2 production (ELISA) from arachidonic acid (10 µM) by lysates of COX-2-expressing neutrophils with increasing quantities of hrNuc in assay [1] was 5 fold. Moreover, in assay [2], the PGE2 production (ELISA) from arachidonic acid (10 µM) by purified human recombinant COX-2 (1 U/sample, Cayman) with increasing amounts of hrNuc (fold over basal levels) turned out to be 4.

The record behind these values is paper PMC2373884.
